This note sets out measurements from patent publication US5840673, “Insulin-like growth factor binding protein 3 (IGF-BP3) in treatment of p53-related tumors” (Bristol-Myers Squibb Company).

The target in this data set is p53 (His-tagged, wild type) (Homo sapiens, UniProt P04637 P04637:1-393). In words: EMSA; binding potentiated and supershifted by PAb421. As to conditions: tags: His fusion, baculovirus-produced; chain copies: 4. A general note: A gel shift assay detects complexes by their altered migration in electrophoresis.
Sequence of p53 (His-tagged, wild type) (P04637 whole entry, the tested form may be a part, one chain of several): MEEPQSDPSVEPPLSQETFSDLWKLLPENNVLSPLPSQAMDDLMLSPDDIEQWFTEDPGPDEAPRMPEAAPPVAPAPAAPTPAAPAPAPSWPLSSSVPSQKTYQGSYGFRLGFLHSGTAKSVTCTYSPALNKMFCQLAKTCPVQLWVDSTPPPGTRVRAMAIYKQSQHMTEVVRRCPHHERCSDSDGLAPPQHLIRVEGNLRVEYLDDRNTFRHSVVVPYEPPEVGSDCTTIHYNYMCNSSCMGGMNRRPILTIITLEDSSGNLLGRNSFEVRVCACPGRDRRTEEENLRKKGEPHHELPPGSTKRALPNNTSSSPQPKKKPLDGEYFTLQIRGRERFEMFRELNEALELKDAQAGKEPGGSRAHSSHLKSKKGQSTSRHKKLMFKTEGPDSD

B1: IGF-BP3 Box A (dsDNA)
DNA 1: TCGAGAAAACAAGCCACCAACATGCTTGC
DNA 2: GCAAGCATGTTGGTGGCTTGTTTTCTCGA
For B1, the binding result is “binds”.

B2: IGF-BP3 Box B (dsDNA)
DNA 1: TCGAGAGGAGGGCAAGACCTGCCAAGCCTGGGTA
DNA 2: TACCCAGGCTTGGCAGGTCTTGCCCTCCTCTCGA
With B2, the binding result is “binds”.
